1 substance from US20230248820A1 can be followed below.

Bounds are passed on as bounds.

This assay deals with HCMV pentameric complex gH/gL/pUL128/pUL130/pUL131A (Pentamer), wild type, Merlin strain (HCMV Merlin strain) (UniProt Q6SW67). Nature of the assay: method not stated.

The substance “8I21 with HCDR3 Trp105 mutated to alanine (antibody)” showed a fold decrease in binding affinity against 8I21 without the mutation of over 150 fold.
